Test results as given in patent US20130005646A1 (Novo Nordisk, published 2013).
Starred links: 1 amine or outer side, 2 acyl side, 3 side chain; linkers in the order of their positions; H or OH if unused. Positions of bridges follow the written chain, without caps; N, C: chain ends. Groups on a side chain read outwards from the residue. No end group written: not given here. *: point of attachment. X1 = (S)‑4‑Carboxy‑4‑(19-carboxynonadecanoylamino)butyryl, O=C(O)CCCCCCCCCCCCCCCCCCC(=O)N[C@@H](CCC(=O)*)C(=O)O; C20 diacid = O=C(O)CCCCCCCCCCCCCCCCCCC(=O)*; γGlu = O=C(O)[C@H](CCC(=O)[*:2])N[*:1]; AEEA = NCCOCCOCC(=O)O

T1: human amylin 3(a) receptor (human calcitonin receptor + RAMP-3) (human, UniProt P30988 25-474; O60896 24-148)
T1 sequence (looked up) 1: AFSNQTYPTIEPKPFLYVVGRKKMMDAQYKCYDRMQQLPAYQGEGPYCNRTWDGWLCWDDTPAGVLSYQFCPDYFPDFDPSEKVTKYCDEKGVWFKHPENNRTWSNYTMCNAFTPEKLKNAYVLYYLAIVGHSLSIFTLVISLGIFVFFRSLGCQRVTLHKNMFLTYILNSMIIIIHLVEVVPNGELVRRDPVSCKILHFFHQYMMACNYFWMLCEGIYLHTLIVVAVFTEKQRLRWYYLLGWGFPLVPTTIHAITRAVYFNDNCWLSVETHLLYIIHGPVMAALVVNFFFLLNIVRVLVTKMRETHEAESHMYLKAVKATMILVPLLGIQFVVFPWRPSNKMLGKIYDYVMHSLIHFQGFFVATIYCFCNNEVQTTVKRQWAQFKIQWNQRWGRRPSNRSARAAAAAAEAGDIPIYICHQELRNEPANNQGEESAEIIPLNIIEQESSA
T1 sequence (looked up) 2: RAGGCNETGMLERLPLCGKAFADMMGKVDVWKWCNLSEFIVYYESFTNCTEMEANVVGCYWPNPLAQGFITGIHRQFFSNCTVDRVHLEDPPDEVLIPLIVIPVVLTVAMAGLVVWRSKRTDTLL

T2: human calcitonin (a) receptor (human, UniProt P30988 25-474)
T2 sequence (looked up): T1 sequence (looked up) 1

B1: N-epsilon21-[2-(2-{2-[2-(2-{2-[(S)-4-Carboxy-4-(19-carboxyheptadecanoylamino)butyrylamino]ethoxy}ethoxy)acetylamino]ethoxy}ethoxy)acetyl]-[His17,Lys21,Ser28,His … (peptide)
peptide: KCNTATCATQRLANFLHHSSK([AEEA-AEEA-γGlu-19‑carboxyheptadecanoyl])NFGPILSPTNVGSHTY-NH2
modifications: disulfide 2-7
B2: N-alpha-[(S)-4-Carboxy-4-(19-carboxynonadecanoylamino)butyryl]-[Glu14,Gln21,Gln35,Pro37]-pramlintide (peptide)
peptide: {C20 diacid-γGlu}-KCNTATCATQRLAEFLVHSSQNFGPILPPTNVGSQTP-NH2
modifications: disulfide 2-7
SMILES: CC[C@H](C)[C@H](NC(=O)[C@@H]1CCCN1C(=O)CNC(=O)[C@H](Cc1ccccc1)NC(=O)[C@H](CC(N)=O)NC(=O)[C@H](CCC(N)=O)NC(=O)[C@H](CO)NC(=O)[C@H](CO)NC(=O)[C@H](Cc1c[nH]cn1)NC(=O)[C@@H](NC(=O)[C@H](CC(C)C)NC(=O)[C@H](Cc1ccccc1)NC(=O)[C@H](CCC(=O)O)NC(=O)[C@H](C)NC(=O)[C@H](CC(C)C)NC(=O)[C@H](CCCNC(=N)N)NC(=O)[C@H](CCC(N)=O)NC(=O)[C@@H](NC(=O)[C@H](C)NC(=O)[C@@H]1CSSC[C@H](NC(=O)[C@H](CCCCN)NC(=O)CC[C@H](NC(=O)CCCCCCCCCCCCCCCCCCC(=O)O)C(=O)O)C(=O)N[C@@H](CC(N)=O)C(=O)N[C@@H]([C@@H](C)O)C(=O)N[C@@H](C)C(=O)N[C@@H]([C@@H](C)O)C(=O)N1)[C@@H](C)O)C(C)C)C(=O)N[C@@H](CC(C)C)C(=O)N1CCC[C@H]1C(=O)N1CCC[C@H]1C(=O)N[C@H](C(=O)N[C@@H](CC(N)=O)C(=O)N[C@H](C(=O)NCC(=O)N[C@@H](CO)C(=O)N[C@@H](CCC(N)=O)C(=O)N[C@H](C(=O)N1CCC[C@H]1C(N)=O)[C@@H](C)O)C(C)C)[C@@H](C)O
B3: N-alpha-[(S)-4-Carboxy-4-(19-carboxynonadecanoylamino)butyryl]-[Glu14,His17,Gln21,Gln35,Pro37]-pramlintide (peptide)
peptide: {C20 diacid-γGlu}-KCNTATCATQRLAEFLHHSSQNFGPILPPTNVGSQTP-NH2
modifications: disulfide 2-7
SMILES: CC[C@H](C)[C@H](NC(=O)[C@@H]1CCCN1C(=O)CNC(=O)[C@H](Cc1ccccc1)NC(=O)[C@H](CC(N)=O)NC(=O)[C@H](CCC(N)=O)NC(=O)[C@H](CO)NC(=O)[C@H](CO)NC(=O)[C@H](Cc1c[nH]cn1)NC(=O)[C@H](Cc1c[nH]cn1)NC(=O)[C@H](CC(C)C)NC(=O)[C@H](Cc1ccccc1)NC(=O)[C@H](CCC(=O)O)NC(=O)[C@H](C)NC(=O)[C@H](CC(C)C)NC(=O)[C@H](CCCNC(=N)N)NC(=O)[C@H](CCC(N)=O)NC(=O)[C@@H](NC(=O)[C@H](C)NC(=O)[C@@H]1CSSC[C@H](NC(=O)[C@H](CCCCN)NC(=O)CC[C@H](NC(=O)CCCCCCCCCCCCCCCCCCC(=O)O)C(=O)O)C(=O)N[C@@H](CC(N)=O)C(=O)N[C@@H]([C@@H](C)O)C(=O)N[C@@H](C)C(=O)N[C@@H]([C@@H](C)O)C(=O)N1)[C@@H](C)O)C(=O)N[C@@H](CC(C)C)C(=O)N1CCC[C@H]1C(=O)N1CCC[C@H]1C(=O)N[C@H](C(=O)N[C@@H](CC(N)=O)C(=O)N[C@H](C(=O)NCC(=O)N[C@@H](CO)C(=O)N[C@@H](CCC(N)=O)C(=O)N[C@H](C(=O)N1CCC[C@H]1C(N)=O)[C@@H](C)O)C(C)C)[C@@H](C)O
B4: N-epsilon25-[2-(2-{2-[2-(2-{2-[(S)-4-Carboxy-4-(19-carboxyheptadecanoylamino)butyrylamino]ethoxy}ethoxy)acetylamino]ethoxy}ethoxy)acetyl]-[Glu14,His17,Lys25,Ser … (peptide)
peptide: KCNTATCATQRLAEFLHHSSNNFGK([AEEA-AEEA-γGlu-19‑carboxyheptadecanoyl])ILSSTNVGSHTY-NH2
modifications: disulfide 2-7
B5: N-epsilon21-[2-(2-{2-[2-(2-{2-[(S)-4-Carboxy-4-(19-carboxyheptadecanoylamino)butyrylamino]ethoxy}ethoxy)acetylamino]ethoxy}ethoxy)acetyl]-[Glu14,His17,Lys21,Ser … (peptide)
peptide: KCNTATCATQRLAEFLHHSSK([AEEA-AEEA-γGlu-19‑carboxyheptadecanoyl])NFGPILSPTNVGSHTY-NH2
modifications: disulfide 2-7
B6: N-epsilon25-[2-(2-{2-[2-(2-{2-[(S)-4-Carboxy-4-(19-carboxyheptadecanoylamino)butyrylamino]ethoxy}ethoxy)acetylamino]ethoxy}ethoxy)acetyl]-[His17,Lys25,Ser28,Ser … (peptide)
peptide: KCNTATCATQRLANFLHHSSNNFGK([AEEA-AEEA-γGlu-19‑carboxyheptadecanoyl])ILSSTNVGSHTY-NH2
modifications: disulfide 2-7
B7: N-alpha-[(S)-4-Carboxy-4-(19-carboxynonadecanoylamino)butyryl]-[Gly1,Glu14,His17,Gln21,Gln35,Pro37]-pramlintide (peptide)
peptide: {C20 diacid-γGlu}-GCNTATCATQRLAEFLHHSSQNFGPILPPTNVGSQTP-NH2
modifications: disulfide 2-7
SMILES: CC[C@H](C)[C@H](NC(=O)[C@@H]1CCCN1C(=O)CNC(=O)[C@H](Cc1ccccc1)NC(=O)[C@H](CC(N)=O)NC(=O)[C@H](CCC(N)=O)NC(=O)[C@H](CO)NC(=O)[C@H](CO)NC(=O)[C@H](Cc1c[nH]cn1)NC(=O)[C@H](Cc1c[nH]cn1)NC(=O)[C@H](CC(C)C)NC(=O)[C@H](Cc1ccccc1)NC(=O)[C@H](CCC(=O)O)NC(=O)[C@H](C)NC(=O)[C@H](CC(C)C)NC(=O)[C@H](CCCNC(=N)N)NC(=O)[C@H](CCC(N)=O)NC(=O)[C@@H](NC(=O)[C@H](C)NC(=O)[C@@H]1CSSC[C@H](NC(=O)CNC(=O)CC[C@H](NC(=O)CCCCCCCCCCCCCCCCCCC(=O)O)C(=O)O)C(=O)N[C@@H](CC(N)=O)C(=O)N[C@@H]([C@@H](C)O)C(=O)N[C@@H](C)C(=O)N[C@@H]([C@@H](C)O)C(=O)N1)[C@@H](C)O)C(=O)N[C@@H](CC(C)C)C(=O)N1CCC[C@H]1C(=O)N1CCC[C@H]1C(=O)N[C@H](C(=O)N[C@@H](CC(N)=O)C(=O)N[C@H](C(=O)NCC(=O)N[C@@H](CO)C(=O)N[C@@H](CCC(N)=O)C(=O)N[C@H](C(=O)N1CCC[C@H]1C(N)=O)[C@@H](C)O)C(C)C)[C@@H](C)O
B8: N-alpha-[(S)-4-Carboxy-4-(19-carboxynonadecanoylamino)butyryl]-[Glu1,Glu14,Gln21,Gln35,Pro37]-pramlintide (peptide)
peptide: {C20 diacid-γGlu}-ECNTATCATQRLAEFLVHSSQNFGPILPPTNVGSQTP-NH2
modifications: disulfide 2-7
SMILES: CC[C@H](C)[C@H](NC(=O)[C@@H]1CCCN1C(=O)CNC(=O)[C@H](Cc1ccccc1)NC(=O)[C@H](CC(N)=O)NC(=O)[C@H](CCC(N)=O)NC(=O)[C@H](CO)NC(=O)[C@H](CO)NC(=O)[C@H](Cc1c[nH]cn1)NC(=O)[C@@H](NC(=O)[C@H](CC(C)C)NC(=O)[C@H](Cc1ccccc1)NC(=O)[C@H](CCC(=O)O)NC(=O)[C@H](C)NC(=O)[C@H](CC(C)C)NC(=O)[C@H](CCCNC(=N)N)NC(=O)[C@H](CCC(N)=O)NC(=O)[C@@H](NC(=O)[C@H](C)NC(=O)[C@@H]1CSSC[C@H](NC(=O)[C@H](CCC(=O)O)NC(=O)CC[C@H](NC(=O)CCCCCCCCCCCCCCCCCCC(=O)O)C(=O)O)C(=O)N[C@@H](CC(N)=O)C(=O)N[C@@H]([C@@H](C)O)C(=O)N[C@@H](C)C(=O)N[C@@H]([C@@H](C)O)C(=O)N1)[C@@H](C)O)C(C)C)C(=O)N[C@@H](CC(C)C)C(=O)N1CCC[C@H]1C(=O)N1CCC[C@H]1C(=O)N[C@H](C(=O)N[C@@H](CC(N)=O)C(=O)N[C@H](C(=O)NCC(=O)N[C@@H](CO)C(=O)N[C@@H](CCC(N)=O)C(=O)N[C@H](C(=O)N1CCC[C@H]1C(N)=O)[C@@H](C)O)C(C)C)[C@@H](C)O
B9: N-alpha-[(S)-4-Carboxy-4-(19-carboxynonadecanoylamino)butyryl]-[His1,Glu14,Arg18,Pro37]-pramlintide (peptide)
peptide: X1-HCNTATCATQRLAEFLVRSSNNFGPILPPTNVGSNTP-NH2
modifications: disulfide 2-7
SMILES: CC[C@H](C)[C@H](NC(=O)[C@@H]1CCCN1C(=O)CNC(=O)[C@H](Cc1ccccc1)NC(=O)[C@H](CC(N)=O)NC(=O)[C@H](CC(N)=O)NC(=O)[C@H](CO)NC(=O)[C@H](CO)NC(=O)[C@H](CCCNC(=N)N)NC(=O)[C@@H](NC(=O)[C@H](CC(C)C)NC(=O)[C@H](Cc1ccccc1)NC(=O)[C@H](CCC(=O)O)NC(=O)[C@H](C)NC(=O)[C@H](CC(C)C)NC(=O)[C@H](CCCNC(=N)N)NC(=O)[C@H](CCC(N)=O)NC(=O)[C@@H](NC(=O)[C@H](C)NC(=O)[C@@H]1CSSC[C@H](NC(=O)[C@H](Cc2c[nH]cn2)NC(=O)CC[C@H](NC(=O)CCCCCCCCCCCCCCCCCCC(=O)O)C(=O)O)C(=O)N[C@@H](CC(N)=O)C(=O)N[C@@H]([C@@H](C)O)C(=O)N[C@@H](C)C(=O)N[C@@H]([C@@H](C)O)C(=O)N1)[C@@H](C)O)C(C)C)C(=O)N[C@@H](CC(C)C)C(=O)N1CCC[C@H]1C(=O)N1CCC[C@H]1C(=O)N[C@H](C(=O)N[C@@H](CC(N)=O)C(=O)N[C@H](C(=O)NCC(=O)N[C@@H](CO)C(=O)N[C@@H](CC(N)=O)C(=O)N[C@H](C(=O)N1CCC[C@H]1C(N)=O)[C@@H](C)O)C(C)C)[C@@H](C)O

The binders below were run against T1, human amylin 3(a) receptor (human …) (assay: cell-based or functional assay).
With B1 the “Amylin receptor human EC50” value was 0.482 nM.
With B2 the “Amylin receptor human EC50” value was 0.107 nM.
For B3, the “Amylin receptor human EC50” value was 0.091 nM.
In the case of B4, the “Amylin receptor human EC50” value is reported as 0.301 nM.
With B5 the “Amylin receptor human EC50” value was 0.625 nM.
With B6 the “Amylin receptor human EC50” value was 0.199 nM.
With B7 the “Amylin receptor human EC50” value was 0.12 nM.
In the case of B8, the “Amylin receptor human EC50” value is reported as 1.51 nM.
With B9 the “Amylin receptor human EC50” value was 0.0415 nM.

The binders below were run against T2, human calcitonin (a) receptor (assay: cell-based or functional assay).
B1 was tested, and the “CTa receptor human EC50” value was 0.889 nM.
With B2 the “CTa receptor human EC50” value was 0.0585 nM.
For B3, the “CTa receptor human EC50” value was 0.045 nM.
For B4, the “CTa receptor human EC50” value was 0.111 nM.
For B5, the “CTa receptor human EC50” value was 0.347 nM.
With B6 the “CTa receptor human EC50” value was 0.114 nM.
For B7, the “CTa receptor human EC50” value was 0.072 nM.
B8 was tested, and the “CTa receptor human EC50” value was 0.496 nM.
In the case of B9, the “CTa receptor human EC50” value is reported as 0.022 nM.
